Measurements reported in patent US20190185562A1 (Regeneron, published 2019).
Each block holds one binder with its values, some of them ahead of it.

What was measured:
[1] = target: T1, extracellular domain of human LEPR, GPI-anchored on HEK293/hLEPR-GPI cells (human, UniProt P48357 22-839, GPI anchor at the C-terminus ; GPI anchor at the C-terminus, added through the carboxypeptidase M signal peptide. The protein is displayed on the HEK293 cell membrane.); experiment: FACS, 200 nM antibody, HEK293/hLEPR-GPI cells, No Leptin
T1 sequence: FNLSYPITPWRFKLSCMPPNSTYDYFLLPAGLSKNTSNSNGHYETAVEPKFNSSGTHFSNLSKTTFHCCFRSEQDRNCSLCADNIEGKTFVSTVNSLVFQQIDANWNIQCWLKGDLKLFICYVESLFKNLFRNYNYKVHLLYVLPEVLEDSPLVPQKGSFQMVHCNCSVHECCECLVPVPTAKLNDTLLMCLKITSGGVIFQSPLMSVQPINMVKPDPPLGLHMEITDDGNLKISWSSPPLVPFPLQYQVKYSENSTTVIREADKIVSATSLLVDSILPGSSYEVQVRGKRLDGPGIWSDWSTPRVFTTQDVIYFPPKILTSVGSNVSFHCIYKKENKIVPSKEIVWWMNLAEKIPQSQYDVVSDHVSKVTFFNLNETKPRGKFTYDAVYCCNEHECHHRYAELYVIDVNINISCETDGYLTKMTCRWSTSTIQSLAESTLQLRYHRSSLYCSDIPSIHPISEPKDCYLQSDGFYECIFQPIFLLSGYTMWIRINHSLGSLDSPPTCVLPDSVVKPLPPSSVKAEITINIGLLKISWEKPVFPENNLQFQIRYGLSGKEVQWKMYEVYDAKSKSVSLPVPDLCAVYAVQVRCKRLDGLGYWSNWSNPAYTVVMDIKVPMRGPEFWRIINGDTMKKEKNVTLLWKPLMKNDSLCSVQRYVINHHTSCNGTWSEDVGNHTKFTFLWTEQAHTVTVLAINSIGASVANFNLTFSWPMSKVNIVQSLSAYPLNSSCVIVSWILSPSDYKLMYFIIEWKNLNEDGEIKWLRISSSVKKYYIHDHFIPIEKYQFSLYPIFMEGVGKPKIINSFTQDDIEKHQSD
Description: (§1) For the FACS analysis, 0.5×10^6 cells/well of HEK293 parental cells, HEK293/Stat3-luc/gp130-2X Sort cells, and HEK293/hLEPR-GPI cells, were incubated with 200 nM of the conventional antibodies against either GP130 or LEPR or with LEPR×GP130 bispecific antibodies, along with isotype control antibodies at 4° C. in PBS (without calcium and magnesium) containing 2% FBS.
(§2) Cells were fixed using BD CytoFix™ (Becton Dickinson, #554655) and analyzed on an IQue® (Intellicyt) Flow Cytometer. Unstained and secondary antibody alone controls were also tested for all cell lines. The results were analyzed using ForeCyt® (IntelliCyt) and FlowJo version 10 softwares to determine the geometric means of fluorescence for viable cells.

[2] = target: T1, extracellular domain of human LEPR, …; experiment: FACS, 200 nM antibody, HEK293/hLEPR-GPI cells, 1 µM Leptin present
Description: as §1, §2

[3] = target: T2, wild-type human GP130 on HEK293.STAT3.Luc.GP130.hLEPR reporter cells (human, UniProt P40189 23-918); experiment: cell-based or functional assay
T2 sequence (looked up): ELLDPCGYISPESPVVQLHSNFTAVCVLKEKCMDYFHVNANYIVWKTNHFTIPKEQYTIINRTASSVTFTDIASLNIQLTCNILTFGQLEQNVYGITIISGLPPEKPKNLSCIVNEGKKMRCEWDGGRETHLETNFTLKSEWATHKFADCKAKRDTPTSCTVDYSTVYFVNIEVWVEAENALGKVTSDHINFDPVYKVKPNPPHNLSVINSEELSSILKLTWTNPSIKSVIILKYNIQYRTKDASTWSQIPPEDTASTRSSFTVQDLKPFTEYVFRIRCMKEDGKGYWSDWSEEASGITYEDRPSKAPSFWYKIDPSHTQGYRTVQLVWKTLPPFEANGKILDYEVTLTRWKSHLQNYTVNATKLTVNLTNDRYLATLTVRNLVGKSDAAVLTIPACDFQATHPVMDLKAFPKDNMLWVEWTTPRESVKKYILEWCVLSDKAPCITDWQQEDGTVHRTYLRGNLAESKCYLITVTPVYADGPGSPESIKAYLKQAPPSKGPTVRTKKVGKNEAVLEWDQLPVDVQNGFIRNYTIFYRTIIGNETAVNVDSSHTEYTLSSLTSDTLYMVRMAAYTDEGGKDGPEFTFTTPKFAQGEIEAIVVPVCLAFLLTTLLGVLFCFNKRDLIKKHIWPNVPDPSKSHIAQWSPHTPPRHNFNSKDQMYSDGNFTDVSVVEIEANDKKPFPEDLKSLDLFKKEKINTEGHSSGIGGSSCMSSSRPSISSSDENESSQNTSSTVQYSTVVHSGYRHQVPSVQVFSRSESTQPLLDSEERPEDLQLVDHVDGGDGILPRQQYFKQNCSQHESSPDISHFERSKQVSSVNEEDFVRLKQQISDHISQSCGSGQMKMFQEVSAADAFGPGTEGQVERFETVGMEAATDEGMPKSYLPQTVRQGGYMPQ

[4] = target: T3, mutant human LEPR (Y1141F) on HEK293.STAT3.Luc.GP130.hLEPR (Y1141F) cells (human, UniProt P48357 22-1165); experiment: cell-based or functional assay
T3 sequence (looked up): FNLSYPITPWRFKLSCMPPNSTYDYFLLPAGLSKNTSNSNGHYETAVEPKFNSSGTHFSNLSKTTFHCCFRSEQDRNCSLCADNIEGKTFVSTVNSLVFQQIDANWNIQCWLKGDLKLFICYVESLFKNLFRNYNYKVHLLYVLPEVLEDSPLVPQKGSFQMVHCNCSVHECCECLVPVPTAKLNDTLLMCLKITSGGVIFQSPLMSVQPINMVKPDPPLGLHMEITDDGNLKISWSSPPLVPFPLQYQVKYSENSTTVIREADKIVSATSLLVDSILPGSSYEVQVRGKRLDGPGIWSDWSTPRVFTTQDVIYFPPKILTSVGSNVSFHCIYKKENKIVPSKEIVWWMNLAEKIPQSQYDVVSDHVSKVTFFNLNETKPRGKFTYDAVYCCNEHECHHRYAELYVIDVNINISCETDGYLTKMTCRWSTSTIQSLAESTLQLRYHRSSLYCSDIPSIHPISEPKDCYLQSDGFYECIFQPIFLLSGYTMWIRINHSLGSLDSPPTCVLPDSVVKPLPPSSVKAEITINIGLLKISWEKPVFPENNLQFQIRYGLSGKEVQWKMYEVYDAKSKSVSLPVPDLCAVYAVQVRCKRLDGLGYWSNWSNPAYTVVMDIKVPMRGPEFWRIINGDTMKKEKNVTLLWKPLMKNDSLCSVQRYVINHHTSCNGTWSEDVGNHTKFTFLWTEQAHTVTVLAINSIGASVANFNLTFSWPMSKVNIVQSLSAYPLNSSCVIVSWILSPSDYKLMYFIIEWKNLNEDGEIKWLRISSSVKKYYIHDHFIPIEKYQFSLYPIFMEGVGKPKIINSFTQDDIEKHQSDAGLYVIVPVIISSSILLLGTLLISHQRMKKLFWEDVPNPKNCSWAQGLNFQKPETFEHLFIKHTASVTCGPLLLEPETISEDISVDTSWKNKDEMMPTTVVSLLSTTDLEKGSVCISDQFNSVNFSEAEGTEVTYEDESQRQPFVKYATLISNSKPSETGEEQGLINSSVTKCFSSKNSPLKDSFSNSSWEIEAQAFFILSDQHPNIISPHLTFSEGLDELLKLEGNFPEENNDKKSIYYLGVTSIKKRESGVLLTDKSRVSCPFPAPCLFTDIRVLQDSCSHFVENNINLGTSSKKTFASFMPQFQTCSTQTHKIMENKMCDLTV

[5] = target: T4, full length human GP130 (leucine at position 2 changed to valine) on HEK293/Stat3-luc/gp130-2X Sort cells (human, UniProt P40189 23-918); experiment: FACS, 200 nM antibody, HEK293/gp130 2X Sort cells
T4 construct: whole, on cells; also called HEK293/gp130 2X Sort
T4 sequence (looked up): T2 sequence (looked up)
Description: as §1, §2

[6] = target: T5, human LEPR extracellular domain expressed with a C-terminal myc-myc-hexahistidine tag (human, UniProt P48357 22-839); experiment: SPR (Biacore 4000), antibody captured by anti-human Fc, 25 C
T5 construct: Monomeric reagent; the entry named is the whole tagged construct; also called hLEPR-MMH; hLEPR.mmh

[7] = target: T6, macaca fascicularis LEPR extracellular domain expressed with a C-terminal myc-myc-hexahistidine tag (Macaca fascicularis, UniProt Q9MYL0 22-837 (rhesus entry)); experiment: as above
T6 construct: Monomeric reagent; the entry named is the whole tagged construct; also called mfLEPR-MMH

B2: bsAb21236D (bispecific antibody, V domains shown)
VH 1: QVQLQESGPGLVKPSQTLSLTCTVSGGSISSGGDYWSWIRQLPGKGLEWIGYIYYSGSAYYNPSLKSRGTISIDTSKNQFSLKLTSVTAADTAVYFCVKLRFLEWFLGGWFGPWGQGTLVTVSS
VH 2: QVQLVESGGGLVKPGGSLRLSCAASGFTFSDYYMTWIRQTPGKGLDWVSYISSSGTNKYNADSVKGRFTISRDNAKNSLYLQMNSLRAEDTAVYYCVRDPPWGMDVWGQGTTVTVSS
VL: not shown
notes: LEPR x GP130 bispecific with common light chain; also called H4H21236D; bsAb21236 (LEPR × GP130)
EC50 (M), STAT3-luciferase activation of HEK293.STAT3.Luc.GP130.hLEPR (Y1141F) cells, 10 nM leptin [3]: 2.11e-09 M
Percentage activation as compared to hOSM [3]: 25%
Percentage activation as compared to hOSM [4]: 25%
Binding Ratio: Normalized to Unstained Sample of Each Cell Line (FL4-A) [5]: 132 ratio
Binding Ratio: Normalized to Unstained Sample of Each Cell Line (FL4-A) [1]: 4420 ratio
Binding Ratio: Normalized to Unstained Sample of Each Cell Line (FL4-A) [2]: 3600 ratio

B4: mAb18445 (antibody, V domains shown)
VH: B2 VH 1
VL: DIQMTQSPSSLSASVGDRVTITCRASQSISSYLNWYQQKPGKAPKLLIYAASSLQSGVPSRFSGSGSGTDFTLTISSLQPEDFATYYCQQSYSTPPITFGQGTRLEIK
notes: Conventional anti-LEPR antibody; also called mAB18445 (anti-LEPR mAb)
Binding Ratio: Normalized to Unstained Sample of Each Cell Line (FL4-A) [1]: 4710 ratio
Binding Ratio: Normalized to Unstained Sample of Each Cell Line (FL4-A) [2]: 4250 ratio

B5: mAb16683 (antibody, V domains shown)
VH: B2 VH 2
VL: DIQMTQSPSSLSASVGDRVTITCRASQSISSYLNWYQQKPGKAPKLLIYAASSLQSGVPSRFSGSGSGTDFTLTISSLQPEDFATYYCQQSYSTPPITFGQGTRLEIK
notes: Conventional anti-GP130 antibody; also called mAb16683 (anti-GP130 mAb)
Binding Ratio: Normalized to Unstained Sample of Each Cell Line (FL4-A) [5]: 235 ratio
Binding Ratio: Normalized to Unstained Sample of Each Cell Line (FL4-A) [1]: 21 ratio

B6: bsAb21236D (bispecific antibody, V domains shown)
VH 1: B2 VH 1
VH 2: B2 VH 2
VL: not shown
notes: LEPR x GP130 bispecific antibody; also called H4H21236D
100 nM hLEPR-MMH Bound (RU) [6]: 8 RU

B7: bsAb21237D (bispecific antibody, V domains shown)
VH 1: EVQLVESGGGLVQPGGSLRLSCAASGFTFSNYGMTWVRQAPGKGLEWVSAITGGGGSTYYSNSVKGRFTISRDNSKNTVYLRMNSVRAEDTAVYYCAKYKWNFVDDWGQGTTVTVSS
VH 2: B2 VH 2
VL: not shown
notes: LEPR x GP130 bispecific with common light chain; also called H4H21237D; bsAb21237 (LEPR × GP130)
EC50 (M), STAT3-luciferase activation of HEK293.STAT3.Luc.GP130.hLEPR (Y1141F) cells, 10 nM leptin [3]: 2.46e-09 M
Percentage activation as compared to hOSM [3]: 20%
Percentage activation as compared to hOSM [4]: 20%
Binding Ratio: Normalized to Unstained Sample of Each Cell Line (FL4-A) [5]: 169 ratio
Binding Ratio: Normalized to Unstained Sample of Each Cell Line (FL4-A) [1]: 6320 ratio
Binding Ratio: Normalized to Unstained Sample of Each Cell Line (FL4-A) [2]: 5930 ratio

Further lines, results first:

Binding Ratio: Normalized to Unstained Sample of Each Cell Line (FL4-A) [1]: 7020 ratio
Binding Ratio: Normalized to Unstained Sample of Each Cell Line (FL4-A) [2]: 6390 ratio
B1: mAb18446 (antibody, V domains shown)
VH: B7 VH 1
VL: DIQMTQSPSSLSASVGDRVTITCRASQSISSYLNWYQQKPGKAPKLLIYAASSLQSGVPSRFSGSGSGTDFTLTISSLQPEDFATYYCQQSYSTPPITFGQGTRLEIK
notes: Conventional anti-LEPR antibody; also called mAB18446 (anti-LEPR mAb)

t½ [6]: 10 min
t½ [7]: 10 min
B3: bsAb21237D (bispecific antibody, V domains shown)
VH 1: B7 VH 1
VH 2: B2 VH 2
VL: not shown
notes: LEPR x GP130 bispecific antibody; also called H4H21237D
